This is an account of results in US9533026B2, “Polypeptide compounds for inhibiting angiogenesis and tumor growth” (VasGene Therapeutics, Inc., priority 2004, dated 2017).

Entries after “also recorded” stand apart in the source; their conditions may differ.

Data set [1] deals with EphB4. Description: EphB4 expression in HNSCC cell lines on EGFR inhibition (Western blot). It is filed as cell-based, human. The method, then: Western blot of total cell lysates sequentially probed with EphB4 monoclonal antibody, stripped and reprobed with β-actin monoclonal antibody as described for FIG. 39C. B) Effect of the specific EGFR inhibitor AG1478 on EphB4 expression: Western blot of crude cell lysates of SCC15 treated with 0-1000 nM AG 1478 for 24 h in media supplemented with 10% FCS (left) or with […] AG 1478 for 4, 8, 12 or 24 h (right). Shown are membranes sequentially probed for EphB4 and β-actin. C) Effect of inhibition of EGFR signaling on EphB4 expression in SCC cell lines: Cells maintained in growth media containing 10% FCS were treated for 24 hr with 1 μM AG 1478, after which crude cell lysates were analyzed by Western blots of cell lysates sequentially probed with for EGFR, EphB4, ephrin B2 and β-actin antibodies. Specific signal for EGFR was detected at 170 kD and ephrin B2 at 37 kD in addition to EphB4 and β-actin as described in FIG. 1C. β-actin serves as loading and transfer control.
A general note: In western blotting, separated proteins are transferred to a membrane and probed.

Data set [2] relates to EphB4. The data set can be described thus: EphB4 expression in PC3 cells on EGFR / IGF-1R blockade (Western blot). It is filed as cell-based, human. The settings on record: AG1478 1 nM 36 hours, MAB391 2 μg/ml overnight. The method, then:
A) Western blot of PC3 cells treated with or without EGFR specific inhibitor AG1478 (1 nM) for 36 hours. […] The membrane was stripped and reprobed with β-actin, which was unaffected. B) Western Blot of triplicate samples of PC3 cells treated with or without IGFR-1 specific neutralizing antibody MAB391 (2 μg/ml; overnight). The membrane was sequentially probed with EphB4, IGFR-1 and β-actin antibodies.

For a further data set, the target named is T1, EphrinB2 (Homo sapiens, UniProt P52799).
T1 construct: protein fusion of Ephrin B2 ectodomain with placental alkaline phosphatase
Description: EphrinB2 (B2-AP) binding assay on affinity magnetic beads. An excerpt: To test whether the B4-HSA fusion property retained the ability of the EphB4 extracellular domain to bind to EphrinB2, the ability of the purified B4-HSA fusion was compared to that of GCF2F, GCF2, GC, CF and B4-Fc fusion, which comprises the extracellular domain of B4 fused to hIgG1 Fc as described in Example 1. Biotinylated or His-tag protein samples were inoculated with the corresponding affinity magnetic beads and B2-AP for an hour at room temperature, before addition of PnPP. Results of binding assays are shown on FIG. 67.
Fractions 1, 2 and 3 of biotinylated and PEGylated sB4 from the SP column purification, corresponding to polypegylated, monopegylated and unpegylated biotinylated sB4, were tested for their ability to bind EphrinB2 using the standard assay. Results of this experiment are shown on FIG. 72.

Data set [3] is described as follows: In vivo stability in mice after intravenous injection. On the set-up: species or system mouse. The settings on record: for stability in vivo relative to sB4 / EphB4 ectodomain: mice. The method, then: The stability of the purified biotinylated sB4 and sB4-HSA were assayed in vivo. Each of the proteins were intravenously injected into the tail of mice in the amount of 0.5 nmoles per mouse. Blood from the eye of each mouse was taken in time frames of 15 min (0 days), 1, 2, 3 and 6 days. […] of obtained serum was used in binding assay with Ephrin-B2-Alkaline Phosphatase fusion protein and Streptavidin-coated magnetic beads as a solid phase. […] For example, one day after injection, the levels of sB4-HSA in the blood of the mice were 5-fold greater than those of sB4.
Fractions 1, 2 and 3 of biotinylated and PEGylated sB4 from the SP column purification, corresponding to polypegylated, monopegylated and unpegylated biotinylated sB4, were introduced by intravenous injection into mice in the amount of 0.5 nMoles/mouse. Blood from each mouse was taken in time frame of 10 min, 1, 2 and 3 days. […] of obtained serum was used in binding assay with Ephrin-B2-Alkaline Phosphatase fusion protein and Streptavidin-coated magnetic beads as a solid phase. Signals, obtained at 10 min were taken as 100%. The two mice for each protein were of a different strain.

T1 sequence (P52799 28-229 limits assumed): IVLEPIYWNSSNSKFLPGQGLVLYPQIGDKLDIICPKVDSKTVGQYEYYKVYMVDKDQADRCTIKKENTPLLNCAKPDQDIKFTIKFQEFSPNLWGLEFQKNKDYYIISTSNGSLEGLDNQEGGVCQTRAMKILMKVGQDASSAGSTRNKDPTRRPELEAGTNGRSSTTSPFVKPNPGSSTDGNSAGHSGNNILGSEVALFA

On to `COc1cc2ncnc(Nc3cccc(Cl)c3)c2cc1OC` [AG1478], for which the “total amount of EphB4” value is “no effect” in the data set on EphB4 [1] (SCC-9, -12, -13 and -71); “marked loss” in the data set on EphB4 [1] (SCC-15 and SCC-25, 24 h, 1 µM). For the same compound, the EphB4 level entry in the data set on EphB4 [2] was “down-regulated; also recorded: Decreased EphB4 signal”.
For the compound “B4-HSA: EphB4 ectodomain fused to human serum albumin, mature form SEQ ID NO:19”, in the data set with EphrinB2, the “binding activity towards EphrinB2” value is recorded as “retain most of its binding activity” and the “binding to EphrinB2 compared with the B4-Fc fusion” value is on record as “superior”. Besides, the “stability in vivo relative to sB4 / EphB4 ectodomain” value in data set [3] is reported as “superior stability”. Besides, the “levels in the blood relative to sB4” value in data set [3] (one day after injection, i.v. 0.5 nmoles per mouse) worked out at 5 fold.
On to “EphB4 ectodomain fusion to the C-terminus of HSA: EphB4 ectodomain fused to the C-terminus of HSA”, for which the “binding activity towards EphrinB2” value in the data set with EphrinB2 was “retain the ability to bind”. In data set [3], the “stability in vivo relative to sB4 / EphB4 ectodomain” value is given as “enhanced stability”.
